Laboratory results from PMC5733569, “Sbp1 modulates the translation of Pab1 mRNA in a poly(A)- and RGG-dependent manner” (RNA, 2018).

What was measured:
[1] = system: Sbp1RGG (Saccharomyces cerevisiae); experiment: EMSA; settings: EMSA: native 8% PAGE in THEM buffer (34 mM Tris base, 57 mM Hepes, 0.1 mM EDTA, 2.5 mM MgCl2); binding buffer salt, pH and temperature not given in the …
[2] = system: Pab1 (Saccharomyces cerevisiae); experiment: EMSA; settings: EMSA: native 8% PAGE in THEM buffer (34 mM Tris base, 57 mM Hepes, 0.1 mM EDTA, 2.5 mM MgCl2); binding buffer salt, pH and temperature not given in the …
[3] = system: Sbp1RRM1 (Saccharomyces cerevisiae); experiment: EMSA; settings: EMSA: native 8% PAGE in THEM buffer (34 mM Tris base, 57 mM Hepes, 0.1 mM EDTA, 2.5 mM MgCl2); binding buffer salt, pH and temperature not given in the …
[4] = system: Sbp1 (Saccharomyces cerevisiae); experiment: EMSA; settings: Hill coefficient 2.1 +/- 0.1; EMSA: native 8% PAGE in THEM buffer (34 mM Tris base, 57 mM Hepes, 0.1 mM EDTA, 2.5 mM MgCl2); binding buffer salt, pH and temperature not given in the …
[5] = system: Sbp1RRM2 (Saccharomyces cerevisiae); experiment: EMSA; settings: EMSA: native 8% PAGE in THEM buffer (34 mM Tris base, 57 mM Hepes, 0.1 mM EDTA, 2.5 mM MgCl2); binding buffer salt, pH and temperature not given in the …
[6] = target: Pab1 (purified, as added in the IgG-pulldown and EMSA) (S. cerevisiae) (UniProt P04147)
[7] = target: T1, C-terminal TAP-tagged eIF4G1 (S. cerevisiae, UniProt P39935 1-952); experiment: pull-down; IgG-pulldown: eIF4G1-TAP with purified Pab1 and Sbp1 (or Sbp1^m) in the presence of 10x 5′UTR_Pab1 RNA; settings: both partners purified
T1 construct: eIF4G1, translation initiation factor of S. cerevisiae; the TAP tag was inserted at the end of the eIF4G1 gene in its chromosome locus; also called eIF4G1-TAP; source: RNase A and 1 M KCl wash to remove endogenous RNAs
T1 sequence (looked up): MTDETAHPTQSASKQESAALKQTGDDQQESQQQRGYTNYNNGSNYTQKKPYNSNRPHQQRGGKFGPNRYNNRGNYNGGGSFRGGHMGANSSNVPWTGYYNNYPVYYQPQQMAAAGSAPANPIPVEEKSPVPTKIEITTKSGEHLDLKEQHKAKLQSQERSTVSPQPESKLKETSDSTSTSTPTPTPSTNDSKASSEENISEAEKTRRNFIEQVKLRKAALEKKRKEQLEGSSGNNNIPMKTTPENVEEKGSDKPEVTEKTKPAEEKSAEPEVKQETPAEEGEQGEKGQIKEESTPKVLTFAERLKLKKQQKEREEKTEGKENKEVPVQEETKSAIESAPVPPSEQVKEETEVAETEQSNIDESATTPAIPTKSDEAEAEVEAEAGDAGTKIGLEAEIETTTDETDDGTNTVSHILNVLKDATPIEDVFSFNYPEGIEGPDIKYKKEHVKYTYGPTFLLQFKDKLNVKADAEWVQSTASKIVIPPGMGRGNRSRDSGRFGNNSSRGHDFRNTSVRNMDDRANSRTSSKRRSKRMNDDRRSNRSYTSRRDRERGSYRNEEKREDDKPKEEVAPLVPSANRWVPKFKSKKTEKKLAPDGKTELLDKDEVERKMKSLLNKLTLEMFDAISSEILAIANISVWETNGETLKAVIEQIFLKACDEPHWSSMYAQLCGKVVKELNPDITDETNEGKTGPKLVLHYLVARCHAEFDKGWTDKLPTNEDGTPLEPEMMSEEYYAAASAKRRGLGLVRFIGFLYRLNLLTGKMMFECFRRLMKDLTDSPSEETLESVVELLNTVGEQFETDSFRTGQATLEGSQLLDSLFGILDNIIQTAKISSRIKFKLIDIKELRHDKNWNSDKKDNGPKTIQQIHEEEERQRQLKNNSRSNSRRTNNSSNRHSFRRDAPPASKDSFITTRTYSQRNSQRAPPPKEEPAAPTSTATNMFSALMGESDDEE

Molecule: 5'UTRPab1
- Kd [1]: 2700 nM
- Kd [2]: 31.2 nM
- Kd [3]: 1100 nM
- Kd [4]: 26.5 nM
- Kd [5]: 900 nM

B1: Sbp1 (natural protein)
chain: MSAEIEEATNAVNNLSINDSEQQPRAPTHKTVIDPEDTIFIGNVAHECTEDDLKQLFVEEFGDEVSVEIPIKEHTDGHIPASKHALVKFPTKIDFDNIKENYDTKVVKDREIHIKRARTPGQMQRGGFRGRGGFRGRGGFRGGFRGGYRGGFRGRGNFRGRGGARGGFNGQKREKIPLDQMERSKDTLYINNVPFKATKEEVAEFFGTDADSISLPMRKMRDQHTGRIFTSDSANRGMAFVTFSGENVDIEAKAEEFKGKVFGDRELTVDVAVIRPENDEEEIEQETGSEEKQE
- cap-dependent translation initiation activity of the 5′UTR Pab1 luciferase reporter in yeast cell extract with an increasing amount of Sbp1 [6]: 20 to 60 % decrease

B2: Pab1 (purified, as added in the IgG-pulldown and EMSA) (natural protein, S. cerevisiae, UniProt P04147 1-577, looked up)
chain: MADITDKTAEQLENLNIQDDQKQAATGSESQSVENSSASLYVGDLEPSVSEAHLYDIFSPIGSVSSIRVCRDAITKTSLGYAYVNFNDHEAGRKAIEQLNYTPIKGRLCRIMWSQRDPSLRKKGSGNIFIKNLHPDIDNKALYDTFSVFGDILSSKIATDENGKSKGFGFVHFEEEGAAKEAIDALNGMLLNGQEIYVAPHLSRKERDSQLEETKAHYTNLYVKNINSETTDEQFQELFAKFGPIVSASLEKDADGKLKGFGFVNYEKHEDAVKAVEALNDSELNGEKLYVGRAQKKNERMHVLKKQYEAYRLEKMAKYQGVNLFVKNLDDSVDDEKLEEEFAPYGTITSAKVMRTENGKSKGFGFVCFSTPEEATKAITEKNQQIVAGKPLYVAIAQRKDVRRSQLAQQIQARNQMRYQQATAAAAAAAAGMPGQFMPPMFYGVMPPRGVPFNGPNPQQMNPMGGMPKNGMPPQFRNGPVYGVPPQGGFPRNANDNNQFYQQKQRQALGEQLYKKVSAKTSNEEAAGKITGMILDLPPQEVFPLLESDELFEQHYKEASAAYESFKKEQEQQTEQA
notes: it may be the same molecule as m1
- binding result [7]: binds
